Test results from article doi:10.1101/2023.11.12.566739.

T1: α-synCas (synthetic ancestral Cas12a-like nuclease, ASR) (synthetic construct (ancestral …, UniProt PDB:8QWE_1 1-1261))
T1 chain: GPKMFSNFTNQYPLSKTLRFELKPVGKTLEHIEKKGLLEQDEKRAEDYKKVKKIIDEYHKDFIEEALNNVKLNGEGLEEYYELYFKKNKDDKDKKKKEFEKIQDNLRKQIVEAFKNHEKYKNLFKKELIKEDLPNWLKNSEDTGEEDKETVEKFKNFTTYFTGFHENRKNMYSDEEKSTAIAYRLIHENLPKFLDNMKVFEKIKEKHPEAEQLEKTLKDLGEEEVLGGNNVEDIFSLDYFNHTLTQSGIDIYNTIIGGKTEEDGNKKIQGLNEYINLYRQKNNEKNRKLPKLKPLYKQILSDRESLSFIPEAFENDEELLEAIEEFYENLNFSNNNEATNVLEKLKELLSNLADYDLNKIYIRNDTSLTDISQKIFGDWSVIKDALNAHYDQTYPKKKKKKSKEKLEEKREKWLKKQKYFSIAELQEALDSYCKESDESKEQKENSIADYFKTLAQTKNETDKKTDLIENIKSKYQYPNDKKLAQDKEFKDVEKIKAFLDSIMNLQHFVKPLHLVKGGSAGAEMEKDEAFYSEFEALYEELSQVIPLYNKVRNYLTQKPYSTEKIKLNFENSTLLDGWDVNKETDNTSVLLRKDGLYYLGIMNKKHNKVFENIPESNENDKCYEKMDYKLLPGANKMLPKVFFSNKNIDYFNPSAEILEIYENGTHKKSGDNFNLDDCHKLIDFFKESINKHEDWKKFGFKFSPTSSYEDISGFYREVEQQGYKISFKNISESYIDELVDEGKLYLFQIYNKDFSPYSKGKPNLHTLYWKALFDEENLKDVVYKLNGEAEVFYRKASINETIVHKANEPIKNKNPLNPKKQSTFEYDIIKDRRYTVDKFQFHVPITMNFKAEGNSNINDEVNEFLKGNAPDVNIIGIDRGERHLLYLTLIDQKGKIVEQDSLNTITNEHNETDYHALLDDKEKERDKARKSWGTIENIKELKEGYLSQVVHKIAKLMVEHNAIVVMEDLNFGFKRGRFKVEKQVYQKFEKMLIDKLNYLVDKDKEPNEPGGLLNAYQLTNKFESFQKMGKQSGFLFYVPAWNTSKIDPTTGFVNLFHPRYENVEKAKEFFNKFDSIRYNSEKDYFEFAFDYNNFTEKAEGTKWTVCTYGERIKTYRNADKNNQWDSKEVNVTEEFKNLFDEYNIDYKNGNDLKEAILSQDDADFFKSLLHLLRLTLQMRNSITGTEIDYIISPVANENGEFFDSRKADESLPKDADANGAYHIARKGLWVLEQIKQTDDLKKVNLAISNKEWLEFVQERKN

B1: crRNA + target dsDNA (cis DNA), ternary complex (mixed)
RNA: AAUUUCUACUGUUGUAGAUUCCUAAGGCGUUACCCCAAU
DNA 1: CTAGCATATTTATCCTAAGGCGTTACCCCAATGGGAGGG
DNA 2: CCCTCCCATTGGGGTAACGCCTTAGGATAAATATGCTAG

Columns and labels:
[1] = target: T1, α-synCas (synthetic ancestral …); assay: cryo-EM
[2] = target: T1, α-synCas (synthetic ancestral …); assay: size exclusion chromatography

Binder	binding result [1]	binding result [2]
B1	binds	–
AAUUUCUACUGUUGUAGAUUCCUAAGGCGUUACCCCAAU (structured_RNA) [crRNA (cryo-EM)]	–	binds
